This note sets out measurements from patent US9926375B2, “Anti-endoglin antibodies and uses thereof” (Tracon Pharmaceuticals, Inc., priority 2014, dated 2018).

One series addresses T1, human CD105 (Homo sapiens, UniProt P17813).
T1 construct: purchased R&D Systems 1097-EN
T1 sequence (P17813 26-586 limits assumed): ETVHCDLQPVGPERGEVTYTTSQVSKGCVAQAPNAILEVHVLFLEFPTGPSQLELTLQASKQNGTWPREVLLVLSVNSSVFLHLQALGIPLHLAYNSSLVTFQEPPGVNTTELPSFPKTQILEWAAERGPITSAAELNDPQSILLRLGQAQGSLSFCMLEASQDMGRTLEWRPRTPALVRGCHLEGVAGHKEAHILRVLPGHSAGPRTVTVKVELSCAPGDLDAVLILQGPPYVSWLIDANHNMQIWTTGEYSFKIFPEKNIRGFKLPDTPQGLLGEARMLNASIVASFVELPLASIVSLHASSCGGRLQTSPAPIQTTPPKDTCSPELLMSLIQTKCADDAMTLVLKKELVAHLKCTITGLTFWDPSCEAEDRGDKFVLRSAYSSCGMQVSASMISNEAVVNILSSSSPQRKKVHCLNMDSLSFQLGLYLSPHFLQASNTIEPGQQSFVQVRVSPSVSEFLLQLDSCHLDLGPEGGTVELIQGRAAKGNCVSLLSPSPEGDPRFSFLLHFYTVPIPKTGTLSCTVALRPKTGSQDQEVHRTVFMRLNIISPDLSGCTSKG
As to the kind of experiment: Competition ELISA against biotinylated TRC205 antibody for binding to human CD105. As to conditions: biotinylated TRC205 55 ng/ml. As to the method: After washing three times with PBST, a three-fold dilution series of either human BMP9 (R&D Systems Cat. No. 3209-BP-010) (413 nM to 0.56 nM), or unlabelled TRC205 antibody (40 nM to 0.05 nM) or a single concentration of an irrelevant antibody (66 nM) was mixed with a fixed concentration of biotinylated TRC205 antibody (55 ng/ml) and added to the plate. Following incubation for 1 hour at room temperature, the plate was washed three times with PBST and binding of the biotinylated TRC205 antibody was detected using streptavidin-HRP (Sigma Cat. No. 55512) and TMB substrate (Sigma Cat. No. T0440). OD450 nm values were measured on a Dynex MRX TCII plate reader.
Background: ELISA stands for enzyme-linked immunosorbent assay.

Another series deals with T2, human endoglin (Homo sapiens, UniProt P17813).
T2 sequence (P17813 26-658): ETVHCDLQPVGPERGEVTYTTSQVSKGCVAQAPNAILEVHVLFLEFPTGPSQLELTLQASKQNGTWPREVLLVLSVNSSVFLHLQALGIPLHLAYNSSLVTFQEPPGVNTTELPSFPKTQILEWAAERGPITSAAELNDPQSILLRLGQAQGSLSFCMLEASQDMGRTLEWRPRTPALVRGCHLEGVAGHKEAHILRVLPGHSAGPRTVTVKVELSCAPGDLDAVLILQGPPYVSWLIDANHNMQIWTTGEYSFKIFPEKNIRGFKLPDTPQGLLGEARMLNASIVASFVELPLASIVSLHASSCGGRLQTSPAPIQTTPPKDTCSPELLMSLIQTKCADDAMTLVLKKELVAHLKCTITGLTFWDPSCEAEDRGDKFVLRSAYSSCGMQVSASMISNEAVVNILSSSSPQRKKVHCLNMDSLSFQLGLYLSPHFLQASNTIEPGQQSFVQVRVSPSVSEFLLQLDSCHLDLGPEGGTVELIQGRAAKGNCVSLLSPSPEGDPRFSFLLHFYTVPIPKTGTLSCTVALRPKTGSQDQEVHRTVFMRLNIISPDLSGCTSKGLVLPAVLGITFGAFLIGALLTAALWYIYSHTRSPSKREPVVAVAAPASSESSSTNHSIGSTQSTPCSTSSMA
The series can be described thus: BIAcore (surface plasmon resonance) analysis of anti-endoglin antibody binding. As to conditions: antibody captured on protein A chip, 25 degrees Celsius. As to the method:
Affinity of antibodies can be assessed using, for example, BIAcore analysis using standard protocols. Briefly, protein A is chemically coupled to a BIAcore CM5 chip, with the amount of protein A immobilized corresponding to 2000 RU. Subsequent steps are performed in a running buffer of 10 mM HEPES, 150 mM NaCl, 3 mM EDTA, 0.05% TWEEN, pH=7.4, at 25 degrees Celsius using a 10 Hz data collection rate. Anti-endoglin antibody (10 nM) is captured at a 10 μL/min flow rate by the immobilized protein A on the BIAcore chip: typically, capture times of 20, 40 and 80 seconds allow the capture of antibody densities corresponding to 130 RU, 330 RU and 570 RU, respectively. Start-up cycles are performed using running buffer at a flow rate of 40 μL/min, a contact time of 90 seconds and a dissociation time of 90 seconds. Sample cycles are performed using recombinant endoglin at concentrations ranging from 0 to 40 nM. Endoglin is passed over the BIAcore chip containing captured antibody at a flow rate of 40 μL/min with a contact time of 525 seconds and dissociation time of 2500 seconds. Eight sample cycles are typically performed at each antibody capture density. Regeneration of the chip is accomplished using 10 mM glycine pH=1.7. Data analysis is performed using BIAcore T100 Evaluation Software v1.1 Signals generated using BIAcore chips with different captured antibody densities are compared and data generated in the absence of recombinant endoglin are used to adjust for the intraassay blank signal. For fitting of the data, the Rmax is allowed to float to account for variation in capture levels of each antibody in each cycle. Data from each capture density is fitted simultaneously during analysis of each antibody. BIAcore data are presented in Table 2 for chimeric, humanized and deimmunized anti-endoglin antibodies, including ka (1/Ms), kd (1/s), KD (M) and Chi^2 (RU^2).
(In general: Surface plasmon resonance follows binding to a sensor surface in real time, without labels.)

Series [1] has as its system peripheral blood mononuclear cells (PBMCs). The series can be described thus: EpiScreen time course T cell proliferation assay with intact anti-endoglin antibodies. The settings on record: of 20 donors; 50 μg/mL antibody; SI≥2 (borderline ≥1.90), p<0.05. The format is cell-based, human. The source says:
This example describes a method of screening anti-endoglin antibodies for T-cell epitopes. The interaction between MHC, polypeptide and T cell receptor (TCR) provides the structural basis for the antigen specificity of T cell recognition. T cell proliferation assays test the binding of polypeptides processed from antibodies to MHC and the recognition of MHC/polypeptide complexes by the TCR. In vitro T cell proliferation assays of the present example, involve the stimulation of peripheral blood mononuclear cells (PBMCs), containing antigen presenting cells (APCs) and T cells. Stimulation is conducted in vitro using intact anti-endoglin antibodies. Stimulated T cell proliferation is measured using ^3H-thymidine (^3H-Thy) and the presence of incorporated ^3H-Thymidine is assessed using scintillation counting of washed fixed cells.
Anti-endoglin antibodies were purified from the supernatants of mammalian cultures by protein A chromatography. Buffer exchange and protein concentration was done using PBS pH=7.4. Anti-endoglin antibody was further purified by size exclusion chromatography using a Sephacryl S200 column (GE Healthcare, AMersham, UK). The major peak is collected, filter sterilized and shown to have endotoxin levels <5 EU/mg using an Endosafe-PTS (Charles River, Margate, UK). The purified antibodies are stored at 4 degrees Celsius. Final concentrations were determined by UV absorption using calculated molar extinction coefficients, where A280 1.0=1.62 mg/mL. Each antibody was then diluted to 100 μg/mL in AIMV culture medium.
Peripheral Blood Mononuclear cells (PBMC) are isolated from healthy community donor buffy coats (from blood drawn within 24 hours) which are obtained from the UK National Blood Transfusion Service (Addenbrooke's Hospital, Cambridge, UK) according to approval granted by Addenbrooke's Hospital Local Research Ethics Committee. PBMC are isolated from buffy coats by Lymphoprep (Axis-shield, Dundee, Scotland) density centrifugation and CD8+ T cells are depleted using CD8+ RossetteSep™ (StemCell Technologies, Inc.). Donors are characterized by identifying HLA-DR haplotypes using a Biotest HLA SSP-PCR based tissue-typing kit (Biotest, Landsteinerstralβe, […]). T cell responses to a control antigen, Keyhole Limpet Haemocyanin (KLH) (Pierce, Rockford, Ill., USA) are determined for a positive control. PBMC were then frozen and stored in liquid nitrogen until required. When required for use, cells are thawed rapidly in a water bath at 37° C. before transferring to 10 ml pre-warmed AIM V medium.
A cohort of 20 donors is selected to best represent the number and frequency of HLA-DR allotypes expressed in the world population. […]
PBMCs from each donor are thawed, counted and viability assessed. […]

For “BMP9: human BMP9 (R&D Systems Cat. No. 3209-BP-010), endoglin ligand [reference compound]”, the “IC50 of competition with biotinylated TRC205 antibody” value in the series with human CD105 was determined as 0.35 µg/mL.

B1: VK1AAVH1A2: humanized/deimmunized anti-endoglin IgG1; light chain SEQ ID NO: 93 (VK1AA), heavy chain SEQ ID NO: 89 (VH1A2) (antibody, V domains shown)
VH: EVQLVESGGGLVKPGGSLRLSCAASGFTFSDAWMDWVRQAPGKGLEWVGEARSKASNHATYYAESVKGRFTISRDDSKNTLYLQMNSLKTEDTAVYYCTRWRRFFDSWGQGTLVTVSS
VL: DIQMTQSPSSLSASVGDRATITCRASSSVSYMHWYQQKPGKAPKPWAYATSNLASGVPSRFSGSGSGTDYTLTISSLQPEDFATYYCQQWSSNPLTFGGGTKVEIK
Consider B1, for which, in the series with human endoglin, the ka is 46000 M⁻¹ s⁻¹ and the kd was 3.25e-05 s⁻¹. The “Donors with positive T cell proliferation responses” value in series [1] is “none of the donors in the study cohort responded positively”.
